Reference: PMC10024333 (Iranian Journal of Pharmaceutical Research : IJPR, 2022)

Target: T1, Trx-CD20 (thioredoxin-tagged CD20/G4S cassette: Trx, ECL1, (G4S)3 linker, ECL2, C-terminal His-tag) (Homo sapiens, UniProt P11836)
T1 chain: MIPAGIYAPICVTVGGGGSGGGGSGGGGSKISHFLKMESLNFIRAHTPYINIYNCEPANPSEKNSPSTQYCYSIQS
Experiment: ELISA

Ka: 2.66e+12 M⁻¹
B1: Zytux (rituximab, Aryogen Pharmed, Iran) (antibody, V domains shown)
VH: QVQLQQPGAELVKPGASVKMSCKASGYTFTSYNMHWVKQTPGRGLEWIGAIYPGNGDTSYNQKFKGKATLTADKSSSTAYMQLSSLTSEDSAVYYCARSTYYGGDWYFNVWGAGTTVTVSA
VL: QIVLSQSPAILSASPGEKVTMTCRASSSVSYIHWFQQKPGSSPKPWIYATSNLASGVPVRFSGSGSGTSYSLTISRVEAEDAATYYCQQWTSNPPTFGGGTKLEIK
